The values that follow come from the DeepSol protein solubility set.

The nature of the data set: soluble on expression in E. coli; label from the status in PepcDB or PDB records.
For the sequence “RMEMVEIGGIQQALYIRGQNADNPIILWVHGGPGNSMMPFLHLYQYEWENDFTVVNWDQRNVGKTYFANDPAAVLQTMSAERVLQDVHEVTAYLKQEFNKEKIILIGHSWGTVLGTMAVQTYPEDYSAYIGIAQTVNMVDNERVGYEKTLEMVKAAGKQKDIKALEAIAPYPPAKYGPSYLAALMTVRTYQSKYGLSINMDLGNIISILATPYYSLRELKNTAIFNPNAIDNQGDVLRFLVEEADIRNYGVDYQVPVYYIMGENDYNSPYLPAKKFFDEIVAPDKQIFFIPDADHLPFLSKKAEFDCVLLE”, the “soluble on expression in E. coli” value is recorded as “not soluble”. To “RMNLKEAAKKAENKSDFVNHVLPHYCNIMFGLIETRSAFLHEKSNFFEGFLTKEGLINEDRFAPMFGIYGMAEAVDILMEKEGIEAKYGHDEIANQLGHAISKQLSEIVDATDVKYGYHGKALLHAQGGISLDIDVTPGVRIPYGTEPDPVSYVQATVGHHQYYTSGISDILTIDETVKSNPEAMFNLAKGALQLGYREFTANVASNDLVRITGYMVKLSDIAKYDAEGSRTNTTFL” belongs “not soluble”; to “RPARQVRRLEFNQAMDDFKTMFPNMDYDIIECVLRANSGAVDATIDQLLQMNLE”, “soluble”; to “RPLKRDKPAARTLKDNWLRTEREERLWQALRVWRMKQAEAEGIPAYMIFGDKTLRDLVEKMPQDLNGLHDIYGLGEAKIDRFGHGILEVCRNAAGFSRDAVIRPQTEREQQLRQKLEAWRYEQARAENCALHAVLSDESLADMLADTPETETDLEGVYGLGSVRAAKYGRDILAVCRPFSDGIDETAKRKRRLMRALIQWCGETAKHEQSEPYRILSKAALRAIAAKQPEGLAELAAVYGVGEEKAARYGAAVLAVLERNAV”, “not soluble”. In the case of “RPPLQEYVRKLLYKDLSKVTTEKVLRQMRKLPWQDQEVKDYVICCMINIWNVKYNSIHCVANLLAGLVLYQEDVGIHVVDGVLEDIRLGMEVNQPKFNQRRISSAKFLGELYNYRMVESAVIFRTLYSFTSFGVNPDGSPSSLDPPEHLFRIRLVCTILDTCGQYFDRGSSKRKLDCFLVYFQRYVWWKKSLEVWTKDHPFPIDIDYMISDTLELLRPKIKLCNSLEESIRQVQDLEREFLIKLGLVN”, the “soluble on expression in E. coli” value is given as “soluble”. Turning to “RPQTTNSWQNSEIEGIDIMLAIDVSTSMLAEDLKPNRLEAAKDVAAEFINGRPNDNIGITLFAGESFTQCPLTVDHAVLLNLFQGIQCDIIEDGTAVGMGIANAVTRLKDSKAKSKVIILLTDGTNNKGDISPLTAAEIAKSFGIRVYTIGVGTNGMAPYPVRVGGTTQYINTPVEIDEKTLTQIAGTTDGNYFRATSNSKLKEVYEEI”, the “soluble on expression in E. coli” value was “not soluble”.

For “RRNINVVLHEDSKALDEVVIVGYGKQKKESVVVSMSSIKPKDIVVPSRSLNNSLAGQVAGLIAVQRSGEPGYDNAEFWIRGVSTFAGGTSPLVLVDGVPRNMSDIEPDEIETFSVLKDAAATAIYGAEGANGVVLVTTKRGRVEK”, the “soluble on expression in E. coli” value was “not soluble”.

With “RSDTTIVATVNPRDKQTTLVSLARDTYVDIPGQGKQDKLNHAYAFGGASLAMDTVENYLNIPINHYVSINMAGLKELVNAVGGIEVNNNLTFSQDGYDFTIGKISLDGEQALSYSRMRYEDPNGDYGRQERQRKVIEGIVQKVLS”, the “soluble on expression in E. coli” value is listed as “not soluble”. In the case of “RTLELAFSSEAAEVQTRSGVEILGHRINEVRMHRLDNGAALLLDHNPREHIGVVESASIDSDHRGRAIVRFGRSPRAEEILRDVLDGIRKHVSVGYLVHQVEVIGQRDAGPLYRATDWEPIEISIVSIPADPSVGIGRALENLPQD”, the “soluble on expression in E. coli” value is “not soluble”. To “RVASNLDNKARVTELFNSAYSILTEVEKLAQEGKMSEPEAKALATRLMRNNLYKDNEYVYVADENMTFVATPLDPQLHDTSFHDFKDGKGNSVGR” belongs “not soluble”; to RVCPRILLECKKDSDCLAECVCLEHGYCG, “soluble”. With “RVKGTFNKYSQLRSMSGMNGAQVAQRVLQAAGIYDVQVRHVSGSLTDHYDPRTKTVNLSDPVYNATSVAALGVAAHECGHAIQHAKSYAPLSIRS” the entry was “not soluble”; with “RWQEGNRITLLENGDQYYPALFAAIGRASRRVILESFIWFEDEVGRRLHAVLLEAARRGIQVEVLLDGYGSPDLSDEFVGELTAAGVIFRYYDPRPKLMGMRTNLFRRMHRKIVVIDDTTAFVGGINYSAEHMSDYGPEAKQDYAVQVEGPVVLDILQFELENLPNSETARRWWRRRRH”, “not soluble”. To “RYWKPEFHPDNSKSIEEWTDEIHTTLQKIMPEVKSENETAELFLSGGVDSSYILAMSDIEKTGSCGYEEERFDESKLAQQTANILGCKNSRYIITPEEYFASVPYVMYHMEQPTGDASAIVFAIGCKAAAENTNICYSGEGADEFFGGYNIYHKAECYGENLKTFYIGNTNIMNEGEKRKILKKYNPDVLPIEVVKGIYEETEELDTLTNMSNVDIQIWLEGDIYFNIDKMSTAVGLEVRMPLTDTRIFDIASRIPSEYKVKGKENKIAFRTAASKTLPEEIAFRNKLGFIVPIRIWMADDQYNKDIRDKFNSEIADKFFNIDEINEIFNDYISGNSDNWRKIWMIYTFLVWYEIYFVKC” belongs “not soluble”; to “SAEGDAGSDQRQNEEIEAMAAIYGEEWCVIDDCAKIFCIRISDDIDDPKWTLCLQVMLPNEYPGTAPPIYQLNAPWLKGQERADLSNSLEEIYIQNIGESILYLWVEKIRDVLIQKSQMTEPGPDVKKKTEEEDVECEDDLILACQPESSVKALDFDISETRTEVEVEELPPIDHGIPITDRRSTFQAHLAPVVCPKQVKMVLSKLYENKKIASATHNIYAYRIYCEDKQTFLQDCEDDGETAAGGRLLHLMEILNVKNVMVVVSRWYGGILLGPDRFKHINNCARNILVEKNYTNSPEESSKALGKNKKVRKDKKRNEH”, “soluble”; to “SAKNAYTKLGTDDNAQLLDIRATADFRQVGSPNIKGLGKKAVSTVYNGEDKPGFLKKLSLKFKDPENTTLYILDKFDGNSELVAELVALNGFKSAYAIKDGAEGPRGWLNSSLPWIEPKKT”, “soluble”. In the case of “SALDTNYCFRNLEENCCVRPLYIDFRQDLGWKWVHEPKGYYANFCSGPCPYLRSADTTHSTVLGLYNTLNPEASASPCCVPQDLEPLTILYYVGRTPKVEQLSNMVVKSCKCS”, the “soluble on expression in E. coli” value is listed as “soluble”. As to “SALKAEGAALDCFEVTLKCEEGEDEEEAMVVAVIPRPEPMLRVTQQEKTPPPRPSPLEAGSDGCEEPKQQVSWEQEFLVGSSPGGSGRALCMVCGAEIRAPSADTARSHILEQHPHTLDLSPSEKSNILEAWSEGVALLQDVRAEQPSPPNSDSGQDAHPDPDANPDAARMPAEIVVLLDSEDNPSLPKRSRPRGLRPLELPAVPATEPGNKKPRGQRWKEPPGEEPVRKKRGRPMTKNLDPDPEPPSPDSPTETFAAPAEVRHFTDGSFPAGFVLQLFSHTQLRGPDSKDSPKDREVAEGGLPRAESPSPAPPPGLRGTLDLQVIRVRMEEPPAVSLLQDWSRHPQGTKRVGAGDTSDWPTVLSESSTTVAGKPEKGNGV”, the “soluble on expression in E. coli” value is given as “soluble”. For “SANTSFLLRKKIFAKLMRITTPSHDHYGSSTLLVRLTNDVYLMEVIAFDFL”, the “soluble on expression in E. coli” value is “not soluble”. As to “SASGDFCSPGEGMEILQQVCSKQLPPCNLSKEDLLQNPYFSKLLLNLSQHVDESGLSLTLAKEQAQAWKEVRLHKTTWLRSEILHRVIQELLVDYYVKIQDTNVTSEDKKFHETLEQRLLVTELMRLLGPSQEREIPPLLGLEKADLLELMPLSEDFVWMRARLQQEVEEQLKKKCFTLLCYYDPNSDADSETVKAAKVWKLAEVLVGEQQQCQDAKSQQKEQMLLLEKKSAAYSQVLLRCLTLLQRLLQEHRLKTQSELDRINAQYLEVKCGAMILKLRMEELKILSDTYTVEKVEVHRLIRDRLEGAIHLQEQDMENSRQVLNSYEVLGEEFDRLVKEYTVLKQATENKRWALQEFSKVYR”, the “soluble on expression in E. coli” value is given as “not soluble”. For the sequence “SASPSLERPEKGAGKSEFRNQKPKPENQDESELLTVPDGWKEPAFSKEDNPRGLLEESSFATLFPKYRGAYLKECWPLVQKALNEHHVNATLDLIEGSMTVCTTKKTFDPYIIIRARDLIKLLARSVSFEQAVRILQDDVACDIIKIGSLVRNKERFVKRRQRLIGPKGSTLKALELLTNCYIMVQGNTVSAIGPFSGLKEVRKVVLDTMKNIHPIYNIKSLMIKRELAKDSELRSQSWERFLPQFKHKNVNKRKEPKKKTVKKEYTPFPPPQPESQIDKELASGEYFLKANQKKRQKMEAIKAKQAEAISKRQEERNKAFIPPKEKPIVKPKEASTETKIDVASIKEKVKKAKNKKLGALTAEEIALKMEADEKKKKKKK”, the “soluble on expression in E. coli” value is listed as “soluble”.

For “SCIIFLKFDPRPASKNAYRLILAANRDEVYSRPSKAAEFWGSSSEILSGLDMEEGKEGGSWLGISKRGKLAALTNYLEARQNPDAQGRGFLVSNYLTDNLDSLAYLRKVSSEAHLYNGFNLLTAEFRANEDTLCYYGNKGSSEPIHLKAGIYGLSNSLLETPWRKLQHGKQLFSSVVSKTLPPDGLVQELLHILNNEELNTPDPAQESQGVGYSNAMLRALSAVCVRSPGYGTRTNTVILIDREGNVSFTERTMQNCDITQWSTNSFHFRLQE”, the “soluble on expression in E. coli” value is on record as “soluble”. In the case of “SDDKPNPEALSDSSERLFSFGVIADVQFADLEDGFNFQGTRRRYYRHSLLHLQGAIEDWNNESSMPCCVLQLGDIIDGYNAQYNASKKSLELVMDMFKRLKVPVHHTWGNHEFYNFSREYLTHSKLNTKFLEDQIVHHPETMPSEDYYAYHFVPFPKFRFILLDAYDLSVLGVDQSSPKYEQCMKILREHNPNTELNSPQGELFL”, the “soluble on expression in E. coli” value is recorded as “soluble”. With “SDEVYLYSDATTSKIARTVTQKLGFSKASSSGTRLHRGYVEEATLEDKPSQTSHIVFVVHGIGQKMDQGRIIKNTAMMREAARKMEEKHFSNHATHVEFLPVEWRSKLTLDGDTVDSITPDKVRGLRDMLNSSAMDIMYYTSPLYRDELVKGLQQELNRLYSLFCSRNPDFEEKGGKVSIVSHSLGCVITYDIMMGWNPGGLYEQLLQKEEELPDERWMSYEERHLLDELYITKRRLREIEDRLHGLKAPSISQTPALKFKVENFFCMGSPLAVFLALRGIRPGNSGSQDHILPREICNRLLNIFHPTDPVAYRLEPLILKHYSNISPVQIHWYNTSNPLPYEHMKPNFLNPAKEPTSVSDSENIAAIPSPVTSPVLSRRHYGESITNIGKASILGAASIGKGLGGMLFSRFGRSSASQPSEPSKDSLEDDKKPSASPSTTTVATQTLPHSGSGFLDSAYFRLQESFFYLPQLLFPENVMQSKDDSLVELEHRIDFELREGLVESRYWSAVTSHTAYWSSLDVALFLLTFMYKHEHDTEAKPSLGSL” the entry was “soluble”; with “SDLPRHIAVLCDGNRRWARSAGYDDVSYGYRMGAAKIAEMLRWCHEAGIELATVYLLSTENLQRDPDELAALIEIITDVVEEICAPANHWSVRTVGDLGLIGEEPARRLRGAVESTPEVASFHVNVAVGYGGRREIVDAVRALLSKELANGATAEELVDAVTVEGISENLYTSGQPDPDLVIRTSGEQRLSGFLLWQSAYSEMWFTEAHWPAFRHVDFLRALRDYSAR”, “soluble”; with “SDLSALRVEEVQNVINAMQKILECPICLELIKEPVSTKCDHIFCKFCMLKLLNQKKGPSQCPLCKNDITKRSLQESTRFSQLVEELLKIICAFQLDTGLEYANSYNFAKK”, “soluble”.
